This note sets out measurements from patent CN116262790A (TAIZE HUIKANG BIOMEDICAL CO LTD; BEIJING MIANYI FANGZHOU …, dated 2023).

Assay [1] addresses 人CD27 (HEK::CD27细胞表达) (human) (UniProt P26842). The assay can be described thus: flow cytometry on cells expressing human CD27. Set-up: concentration or dose not given beside the values.
For assay [2], the target named is T1, 人CD27蛋白 (Cat: 10039-H03H, Sino Biological Inc.) (human, UniProt P26842 20-192).
T1 construct: Bought recombinant protein coated on the SPR chip
T1 sequence (looked up): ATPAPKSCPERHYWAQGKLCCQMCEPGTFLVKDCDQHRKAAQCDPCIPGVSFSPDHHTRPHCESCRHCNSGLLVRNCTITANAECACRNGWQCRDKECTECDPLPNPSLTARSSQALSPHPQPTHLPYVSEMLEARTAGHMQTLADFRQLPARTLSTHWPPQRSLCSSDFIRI
As to the kind of experiment: SPR (Reichert4), human CD27 protein on chip, antibody at 1.25e-8 as analyte.

For assay [3], the target named is T1, 人CD27蛋白 (Cat: 10039-H03H, Sino …). The assay can be described thus: SPR (Reichert4), human CD27 protein on chip, antibody at 2.50e-8 as analyte.
Assay [4] shares this target. As to the kind of experiment: SPR (Reichert4), human CD27 protein on chip, antibody at 5.00e-8 as analyte.
The target is the same in assay [5]. As to the kind of experiment: SPR (Reichert4), human CD27 protein on chip, antibody at 6.25e-9 as analyte.
The next assay has as its target T2, 人CD27 (HEK::CD27细胞表达) (human, UniProt P26842 20-260).
T2 construct: whole, on cells; also called hCD27; 表达人CD27的细胞
T2 sequence (looked up): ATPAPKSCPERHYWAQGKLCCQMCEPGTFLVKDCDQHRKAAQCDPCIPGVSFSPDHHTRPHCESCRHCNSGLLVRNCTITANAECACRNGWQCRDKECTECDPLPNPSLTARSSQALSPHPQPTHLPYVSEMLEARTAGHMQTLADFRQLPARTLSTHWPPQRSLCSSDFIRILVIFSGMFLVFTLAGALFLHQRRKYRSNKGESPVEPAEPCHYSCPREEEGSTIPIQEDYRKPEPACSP
The assay can be described thus: flow cytometry on HEK::CD27 cells, 10 ng and 100 ng antibody.

B1: 6D8 (antibody, V domains shown)
VH: QIQLVQSGPELKKPGETVKISCKASGYTFTNYGMNWVKQAPGKGLKWMGWINTNTGEPTYADDFKGRFAFSLETSATTAYLQINNLKNEDTATYFCAREGDGFDSWGQGTTLTVSS
VL: QFVLTQSPAIMSASPGEKVTMTCSATSSVNYMHWYQQKSGTSPKRWIYDTSRLASGVPARFSGSGSGTSYSLTISSMEAEDAATYYCQQWNTNPWTFGGGTKLEIK
notes: also called 6D8抗体; 鼠抗人CD27单克隆抗体6D8
Regarding B1, the 结合率 in assay [1] is more than 85%. Besides, the Kd in assay [2], in assay [3], in assay [4] and in assay [5] was 0.514 nM throughout. Further, the off-rate (koff) in assay [2], in assay [3], in assay [4] and in assay [5] was 9.69e-05 s⁻¹ in each case. Besides, the kon in assay [2], in assay [3], in assay [4] and in assay [5] was 188000 M⁻¹ s⁻¹ each time.

B2: 6D8-G98A (antibody, human IgG4, V domains shown)
VH: QIQLVQSGPELKKPGETVKISCKASGYTFTNYGMNWVKQAPGKGLKWMGWINTNTGEPTYADDFKGRFAFSLETSATTAYLQINNLKNEDTATYFCAREGDAFDSWGQGTTLTVSS
VL: QFVLTQSPAIMSASPGEKVTMTCSATSSVNYMHWYQQKSGTSPKRWIYDTSRLASGVPARFSGSGSGTSYSLTISSMEAEDAATYYCQQWNTNPWTFGGGTKLEIK
notes: also called 嵌合的6D8-G98A; 6D8-G98A(人鼠嵌合抗体)
As for B2, the binding result with 人CD27 (HEK::CD27细胞表达) is “binds”.

B3: Varlilumab (antibody, V domains shown)
VH: QVQLVESGGGVVQPGRSLRLSCAASGFTFSSYDMHWVRQAPGKGLEWVAVIWYDGSNKYYADSVKGRFTISRDNSKNTLYLQMNSLRAEDTAVYYCARGSGNWGFFDYWGQGTLVTVSS
VL: DIQMTQSPSSLSASVGDRVTITCRASQGISRWLAWYQQKPEKAPKSLIYAASSLQSGVPSRFSGSGSGTDFTLTISSLQPEDFATYYCQQYNTYPRTFGQGTKVEIKR
Consider B3, for which the equilibrium dissociation constant (Kd) in assay [2], in assay [3], in assay [4] and in assay [5] was 0.00185 nM each time. Further, the off-rate constant (koff) in assay [2], in assay [3], in assay [4] and in assay [5] was 2.14e-07 s⁻¹ throughout. The kon in assay [2], in assay [3], in assay [4] and in assay [5] was 116000 M⁻¹ s⁻¹ each time.
